Laboratory results published in the RNAGym collection of RNA variant scans (doi:10.1073/pnas.2313332121).

B1: TPR t1 (parent)
chain: GACCAAUCUGCCCUCAGAGCUCGAGAACAUCUUCGGAUGCAGAGGAGGCAGGCUUCGGUGGCGCGAUAGCGCCAACGUCCUCAACCUCCAAUGCAUCCCACCACAUGAUGAUGCCUGAAGAGCCUUGGUUUUUUG

Variants of: B1
Test: polymerase ribozyme fitness, log enrichment relative to wild type (log ratio); higher = more active; in vitro selection for triplet polymerase activity
Method in brief: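 One round of in vitro selection, in triplicate, was applied to PCR-built, transcribed mutant libraries of each subunit of a heterodimeric triplet polymerase ribozyme. The steps were annealing with a biotinylated primer, partner subunit and triplets, incubation frozen at −7 °C, gel excision of extended constructs, streptavidin-bead capture and RT-PCR. Fitness is the logarithm, base 2, of genotype enrichment over wild-type enrichment from inverse-variance-weighted replicate averages of Illumina-sequenced inputs and outputs, keeping genotypes with ≥10 input reads and ≥1 read per output.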

Variant	polymerase ribozyme fitness (log ratio)
GACCAAUCUACCUUCAGAGCUCGAGAACAUCUUCGGAUGCAGAGGAGGCAGGCUUCGGUGGCGCGAUAGCGCCAACGUCCUCAACGUCCAAUGCAUCCCACCACAUGAUGAUGCCUGAAGAGCCUUGGUUUUUUG	-0.113
GACCAAUCGGCCCUCAGAGCUCGAGAACAUCUUCGGAUGCAGAGGAGGCAGGCUUCGGUGGCGCGAUAGCGCCAACGUCCUCAACCUCCAAUGCAUCCCACCACAUGAAGAUGCCUGAAGAGCCUUGGUUUUUUG	-3.09
GACCAAUCUACCCUCAGAGCUCGAGAACAUCUUCGGAUGCAGAGGAGGAAGGCUUCGGUGGCGCGAUAGCGCCAACGCCCUCAACCUCCAAUGCAUCCCACCACAUGAUGAUGCCAGAAUAGCCUUGGUUUUUUG	-0.56
GACCAAUCUACCCUCAGUGCUCGAGAACAUCUUCGGAUGUAGAGGAGGCAGGCUUCGGGGGCGCGAUAGCGCCAACGUCCUCAACCUCCAAUACAUCCCACCACAUGAUGAUGCCUGAAGAGCCUUGGUUUUUUG	-2.28
GACCAAUCUACCCUCAGAGCUCGAGAAUAUCUUCGGAUGCAGAGGUGGCAGGCUUCGGUGGCGCGAUAGCGCCAACGUCCUCCCCCUCCAAUGCAUCCCACCACAUGAUGAUGCCUGAAGAGCAUUGGUUUUUUG	-2.98
GACCAAUCUACCCUAAGAGCUCGAGAACAUCUUCGGAUGCAGAUGAGGCAGGCUUUGGUGGCGCGAUAGCGCCGACGUCCUCAACCUCCAAUGCAUCCCACCACAUGAUGAUGCCUGAAGAGCCUUGGUUUUUUG	-3.61
GACCAAUCUACCCUCAGAGCUCGAGAACAUCUUCGGAUGCAGAGGAGGCAGGCUUCGGUGGCGCGAUAGCGCCAACGUCCUCAACCUCCAAUGCCUCCCACCACAUGAUGAUGCCUGAAGAGCCUUGGUUUUUUG	-0.471
GACCAAUCUACCCUCAGAGCUCGAGAACAUCUUCGGGUGCAGAGGAGGCAGGCUUCGGUGCCGCGAUAGCGCCAACGUCCUCAAGAUCCAAUGCAUCCCACCACAUGAUGAUACCUGAAGAGCGUUGGUAUUUUG	-5.79
GACCAAUCUACCUUCAGAGCUCGAGAACAUCUUCGGAUGCAGAGGAGGCAGGCUUCGGUGGCGAGAUAGAGCCAACGUCCUCAACCUCCAAUGCAUCCCACCACAUGAUGAUACCUGAAGAGCCCUGGUUUUUUG	-6.12
GACCAAUCUACCCUAAGAGCUCGAGAACAUCUUCGGAUGCAGAGGAGGCAGGCUUCGGUGGCGCGAUAGCGCCAACGUCCUCAACCUCCAAUGAAUCCCACCACAUGAUGAUGCCUGAAGAGCCUUGGUUUUUUG	-3.08
GACCAAUCUACCCUCAGAGCUCGAGAACAUCUUCGGUUGCAGAGUAGGCAGGCUUCGGUGGCGCGAUAGCGCCAACGUCAUCAACCUCCAAUGCAUCCCACCACAUGAUCAUGCCUGAAGAGCCUUGGUUUUUUG	-7.42
GACCAAUCUAACCUCAGAGCUCGAGAACAUCUUCGGAUGCAUAGGAGACAGGCUUCGGUGGCACGUUAGCGCCAACGUCCUCAACCUCCAGUGCAUCCCACCACAUGAUGAUGCUUGAAGAGCCUUGGUUUUUUG	-6.69
GACCAAUCUACCCUCAGAGCUCGAGAACAUCUUCGGAUGCAGAGGAGGCAGGCUUCGGUGGAGCGAUAGCGCCAACGUCCUCAACCUCCAAUGCAACCCACCACAUGAUGAUGCCUGAAGAGCCUUGGUUUUUUG	-2.02
GACCAAUCUACCCUCAGAGCUCGAGAACAUCUUCGGAUGCAGAGGAGGCAGGUUUCGGUGCCGCGAUAGCGCCAACGUCCUCAACCUCCAAUGCAUCCCACCACAUGAUGAUGCCUGAAGAACCUUUGAUUUUUG	0.0511
GACCAAUCUACCCUCAGAGCUCGAGAACAUCUUCGGAUGCAGAGGAGGCAGGCUUAGGUGGCGCGAUAGCGCCAACGUCCUCAACCUCCAAUGCAUCCCACCACAUGAUAAUGCCUGAAGAGCCUUGGUUUUUUG	-0.729
GACCAAUCUACCCUCAGAGCUCGAGAACAUCUUCGGAUGCAGCGGAGGCAGGCUUCGGUGGCGCGAUAGCGCCAACGUCCUCAACCUCCAAUGCAUCCCACCACAUGAUGAUGCCUGAAGAGACCUGGUUUUUUG	-1.73
GACCAAUCUACCCUCAGAGCUCGAGAACAUCUUCGGAUGCAGAGGAGGCAGGCUUCGGUGGCGCGAUAGCGCCGACGUCCUCAACCUCCAAUGCAUUCCAUCACGUGAUGAUGCCUGAAGAGCCUUGGUGUUUUG	-5.19
GACCAAUCGGCCCUCAGAGCUCGAGAACAUCUUCGGAUGCAGAGGAGGCAGGCUUCGGGGGCGCGAUAGCGCCAACGUCCUCAACCUCCAAUGCAUCCCACCACAUGAUGAUGCCUGAAGAGCCUUGGUUUUUUG	0.701
GACCAAUCGGCCCUCAGAGCUCGAGAACAUCUUCGGAUGCAGAGGAGGCAGGCUUCGGUGGCGCGAUAGCGCCAACGUCCUCAACCACCAAUGCAUCCCCCCACAUGAUGAUGCCUGAAGAGCCUUGGUUUUUUG	-0.443
GACCAAUCUACCCUCAGAGCUUGAGAACAUCUUUGGAUGCAGAGGAGGCAGGCUUCGGUGGCGCGAUAGCGACAACGUCCUCAACCUCCAAUGCAUCCCACCACAUGAUGAUGCGUGAAGCUCCUUGGUUUUUUG	-8.04
GACCAAUCUACCUUCAGAGCUCGAGAACAUCUUCGGAUGCAGAGUAGGCAGGCUUCGGUGGCGCGAUAGCGCCAACGUCCUCAACCUCCAAUGCAUCCCACCACAUGAUGAUGCCUAAAGAGCCUUGGUUUUUUG	-0.718
